US8410045B2, “Camptothecin-peptide conjugates and pharmaceutical compositions containing the same” (Drais Pharmaceuticals, Inc., priority 2006, dated 2013)
Like-named read-outs stand apart in the source and are kept apart here. Where a SMILES comes first, the peptide text is derived from it. The star is where a group is joined. X1 = CCc1c2c(nc3ccc(OC(=O)CCCCCN4C(=O)CC(*)C4=O)cc13)-c1cc3c(c(=O)n1C2)COC(=O)[C@]3(O)CC

Key:
[1] = tested on: HCT 116 human epithelial colon carcinoma cells; assay: cells; type: cell-based
Procedure: (§1) Cytotoxic evaluation was performed by seeded cells for 24 h prior to the addition of the therapeutic compound. Cells were incubated for 48 h (37° C.) with different dilutions of the therapeutic compound. Cell viability was then assessed using the WST-1 assay (Roche). The results are expressed as mean cytotoxic concentrations (IC50 value or molar concentration that inhibits 50% of cell viability) that were estimated from sigmoid regression, using Graph Pad Prism 3.02 software.
HCT 116 (ATCC #: CCL-247): human epithelial colon carcinoma cells. Cells were cultured in Mc Coy's 5a medium+1.5 mM L-glutamine and 10% fetal bovine serum. Cells were plated at a density of 8000 cells/well in 96-well plates.

[2] = tested on: NCI-H460 human epithelial lung carcinoma cells; assay: In vitro cytotoxicity (WST-1 cell viability); type: cell-based
Procedure: as §1
NCI-H460 (ATCC#: HTB-177): human epithelial lung carcinoma cells. Cells were cultured in RPMI 1640+glutamax and 10% of fetal bovine serum. Cells were plated at a density of 10,000 cells/well in 96-well plates.

[3] = background statement; cited from earlier work
[4] = Stability of conjugates in citrated plasma at 37° C. (half life time, HPLC fluorescence); type: in vitro ADME, human; settings: human, plasma
Procedure: (§2) The stability of the conjugates was tested in citrated plasma (10% (v/v) sodium citrate buffer, 0.106M) from different species (see Table 1 below). The conjugates at 2.55 μM were incubated at 37° C. in plasma. Samples were analysed using the HPLC fluorescence method described below (see chromatographic equipment and conditions) following TFA/acetonitrile extraction and the amount of free camptothecin, analogs or derivatives thereof (e.g. SN38) released by the conjugates was measured.
(§3) Chromatographic equipment and conditions: 150 μL of each sample were placed in 1.5 mL micro-centrifuge tubes. 450 μL of 5% (v/v) TFA in H2O was added to each tube and the mixture was vortexed for 5 seconds. Samples were then centrifuged at 16000 g, 3 minutes at +4° C. 100 μL of supernatant were placed in 1.5 mL micro-centrifuge tubes. Methanol (100 μL) was then immediately added and vortexed for 5 seconds. Samples were then centrifuged at 16000 g, 3 minutes at room temperature. 150 μL of supernatant were recovered for HPLC analysis. Conjugates, metabolites and camptothecin derivative (i.e. SN38) were separated by high-performance liquid chromatography (HPLC; Agilent 1100 series equipped with a fluorescence detector) using a 4.6×100 mm ([…] particle size) Luna C18(2) column (Phenomenex ref. 00D-4251-E0, Le Pecq, France). The aqueous component of the mobile phase (A) was 0.1% (v/v) TFA in water. The organic modifier (B) was acetonitrile containing 0.1% (v/v) TFA. For the conjugate and its metabolites an elution gradient increasing linearly the proportion of B from 15 to 37% in 2 min, from 37 to 47% in 6 min, followed by 2 min at 90% was applied with a constant flow rate of 1.2 mL/min. The proportion of B was then returned to the initial condition for 3.0 min.
(§4) The half life time of conjugate corresponds to the time necessary to have 50% by mole of free camptothecin, analogs or derivatives thereof released by the conjugates of the invention. In human plasma, the half life time of conjugate DPV1047-linker #1-SN38 (less than 5 mins) was shorter than that of conjugate DPV1047-linker #2-SN38 (6-7 mins), which, in turn, was shorter than that of conjugate DPV1047-linker #3-SN38 (12 mins).
(§5) As in Example II, the stability of these conjugates was tested in either human or dog plasma. Following incubation at 37° C., samples were analyzed after a TFA acetonitrile extraction by the HPLC fluorescence method described in Example II. The in vitro cytotoxicity (IC50) of these compounds was also evaluated.

[5] = as above; type: in vitro ADME; settings: dog
Procedure: as §2, §3, §4, §5

[6] = as above; type: in vitro ADME; settings: DPV1047-linker-SN38, 2.55 μM
Procedure: as §2, §3, §4

[7] = Toxicity study in the beagle dog following intravenous infusion
Procedure: Adult female and male beagle dogs were individually housed with free access to tap water. A pellet diet was distributed daily.
Dogs (1 dog for each drug and dose) were infused intravenously through the cephalic or saphenous vein. These intravenous infusions were made using a single-use catheter (Intraflon®) and a plastic syringe connected to a syringe pump. During the injection, the animals were restrained in a hammock.
Conjugates were dissolved in water for injection (10% of final volume) and diluted with 0.9% NaCl to their final concentration. The volume administered to each animal was adjusted according to body weight.
Clinical signs, hematological and intestinal toxicities were monitored during a period of 15 days after infusion. Each animal was checked at least twice a day for mortality or signs of morbidity.
The body weight of each animal was recorded on the day −1, 4, 10 and 13.
Peripheral blood samples were taken into EDTA tubes for the determination of following parameters on days −1, 5, 11 and 14: erythrocytes, hemoglobin, mean cell volume, packed cell volume, mean cell hemoglobin concentration, mean cell hemoglobin, thrombocytes, leucocytes, differential white cell count with cell morphology.

[8] = Pharmacokinetic study in the dog (blood, HPLC fluorescence); type: in vivo; settings: dog blood; non-toxic doses (DPV1047-BCH-SN38 ≦20 mg/kg, DPV1047-MIC-SN38 ≦50 mg/kg)
Procedure: Peripheral blood samples were taken at different times following infusion for pharmacokinetic analysis.
Blood samples (2.5 mL) were collected in 5 mL in trisodium citrate tubes (Sarstedt S-Monovette® 9NC) containing 2.5 mL of 5% TFA (v/v) and vortexed for 5 seconds before storage at −80° C. (for less than two weeks).
Samples were then analyzed after a TFA and acetonitrile extraction by an HPLC fluorescence method, described below. […] Whole blood samples were acidified with TFA to protect the ester link of the conjugate against hydrolysis and allow protein precipitation to improve conjugate and SN38 recovery.
Five hundred microliters of each sample were then placed in 1.5 mL micro-centrifuge tubes to and centrifuged at 16000×g 3 min at +4° C. […] Methanol (100 μL) was then immediately added and the mixture stirred vigorously (vortex) for 5 seconds. Samples were then centrifuged at 16000×g, 3 min at room temperature.
One hundred and fifty microliters of the supernatant was recovered for HPLC analysis.
DPV1047-BCH-SN38 and its metabolite SN38 were separated by high-performance liquid chromatography (HPLC Agilent 1100 with a fluorescence detector) using the following method: […]

[9] = In vitro human serum stability study; type: in vitro ADME
Excerpt: Peptidic drug delivery systems have also been described in PCT patent application published under No WO 00/01417 filed by […] aiming to facilitate the delivery of different drugs, such as the 10-Hydroxycamptothecin. This patent application describes the use of homeobox peptide derived from the Drosophila antennapedia homoprotein (preferably a cell-penetrating peptide (CPP) named penetratin) for conjugation to a number of cytotoxic drugs, thus enhancing their delivery and/or therapeutic effect. […] Consequently the applicant has performed in vitro human serum stability studies using the conjugate described in example 29 of this patent application No WO 00/01417.

[10] = Table 14, 10-Hydroxycamptothecin conjugates, read-out: Human Plasma Half life time
[11] = Table 14, 10-Hydroxycamptothecin conjugates, read-out: Dog Plasma Half life time

Structure (SMILES): CCc1c2c(nc3ccc(O)cc13)-c1cc3c(c(=O)n1C2)COC(=O)[C@]3(O)CC [SN38, 7-ethyl-10-hydroxy-camptothecin, reference compound]
- IC50 ([1]; Table 11, 48-h continuous exposure, mean of three independent experiments, read-out: Drug concentration that inhibits 50% of cell viability (IC50), HCT 116): 7 nM
- IC50 ([2]; Table 11, 48-h continuous exposure, mean of three independent experiments, read-out: Drug concentration that inhibits 50% of cell viability (IC50), NCI-H460): 22 nM
- fold more active than irinotecan as an anti-proliferative agent [3]: at least 2000 fold
- solubility in water (Solubility in water): ≤ 5 µg/mL

Structure (SMILES): CCc1c2c(nc3ccc(OC(=O)CCCCCN4C(=O)CC(SC[C@H](N)C(=O)N[C@H](C(=O)N[C@@H](CCCCN)C(=O)N[C@@H](CCCNC(=N)N)C(=O)NCC(=O)N[C@@H](CC(C)C)C(=O)N[C@@H](CCCCN)C(=O)N[C@@H](CC(C)C)C(=O)N[C@@H](CCCNC(=N)N)C(=O)N[C@@H](Cc5c[nH]cn5)C(=O)N[C@H](C(=O)N[C@@H](CCCNC(=N)N)C(=O)N5CCC[C@H]5C(=O)N[C@@H](CCCNC(=N)N)C(=O)N[C@H](C(=O)N[C@H](C(=O)N[C@@H](CCCNC(=N)N)C(=O)N[C@@H](CCSC)C(=O)N[C@@H](CC(=O)O)C(=O)N[C@H](C(=O)O)C(C)C)[C@@H](C)O)C(C)C)C(C)C)C(C)C)C4=O)cc13)-c1cc3c(c(=O)n1C2)COC(=O)[C@]3(O)CC (stereo partly shown) [DPV1047-MIC-SN38] (H-C(X1)VKRGLKLRHVRPRVTRMDV-OH)
- half-life ([4]; DPV1047-linker-SN38, 2.55 μM, citrated plasma, read-out: Half life time, Human plasma): 6 to 7 min
- half-life ([5]; DPV1047-linker-SN38, 2.55 μM, citrated plasma, read-out: Half life time, Dog plasma): 36 min
- half-life ([6]; time to 50% by mole free SN38 released, read-out: Half life time, Mouse plasma): < 3 min
- half-life ([6]; monkey): 8 min
- half-life ([6]; rat): 3 min
- MTD as mg equivalent of SN38 ([7]; beagle dog, i.v. infusion): 6.5-9.1 mg equivalent of SN38
- WBC depletion ([7]; dog, 70 mg/kg): 94%
- signs of toxicity ([7]; dog, 70 mg/kg): gastro-intestinal toxicity, diarrhea and emesis
- Reduction in WBC at D5 (%) ([7]; dog, i.v. infusion, 10 mg/kg): −44%
- Toxic signs Day 1 ([7]; dog, i.v. infusion, 10 mg/kg): None
- Toxic signs Following Days ([7]; dog, i.v. infusion, 10 mg/kg): None
- Reduction in WBC at D5 (%) ([7]; dog, i.v. infusion, 20 mg/kg): −57%
- Toxic signs Day 1 ([7]; dog, i.v. infusion, 20 mg/kg): None
- Toxic signs Following Days ([7]; dog, i.v. infusion, 20 mg/kg): None
- Reduction in WBC at D5 (%) ([7]; dog, i.v. infusion, 40 mg/kg): −69%
- Toxic signs Day 1 ([7]; dog, i.v. infusion, 40 mg/kg): None
- Toxic signs Following Days ([7]; dog, i.v. infusion, 40 mg/kg): None
- Reduction in WBC at D5 (%) ([7]; dog, i.v. infusion, 50 mg/kg): −53%
- Toxic signs Day 1 ([7]; dog, i.v. infusion, 50 mg/kg): None
- Toxic signs Following Days ([7]; dog, i.v. infusion, 50 mg/kg): None
- Reduction in WBC at D5 (%) ([7]; dog, i.v. infusion, 70 mg/kg): −94%
- Toxic signs Day 1 ([7]; dog, i.v. infusion, 70 mg/kg): Vomit
- Toxic signs Following Days ([7]; dog, i.v. infusion, 70 mg/kg): Liquid feces D4
- MTD ([7]; dog, in vivo, iv): 50 to 70 mg/kg
- clinical signs ([7]; dogs, 10, 20, 40 and 50 mg/kg): no clinical signs
- SN38 Cmax and AUC versus dose of the conjugate [8]: increased linearly with the dose

Structure (SMILES): CC[C@H](C)[C@H](NC(=O)[C@H](CCCCN)NC(=O)[C@@H](NC(=O)[C@H](CCC(N)=O)NC(=O)[C@H](CCCNC(=N)N)NC(=O)[C@@H](N)CSC1CC(=O)N(CCC(=O)Oc2ccc3nc4c(cc3c2)Cn2c-4cc3c(c2=O)COC(=O)[C@]3(O)CC)C1=O)[C@@H](C)CC)C(=O)N[C@@H](Cc1c[nH]c2ccccc12)C(=O)N[C@@H](Cc1ccccc1)C(=O)N[C@@H](CCC(N)=O)C(=O)N[C@@H](CC(N)=O)C(=O)N[C@@H](CCCNC(=N)N)C(=O)N[C@@H](CCCNC(=N)N)C(=O)N[C@@H](CCSC)C(=O)N[C@@H](CCCCN)C(=O)N[C@@H](Cc1c[nH]c2ccccc12)C(=O)N[C@@H](CCCCN)C(=O)N[C@@H](CCCCN)C(=O)O (stereo partly shown) [reference compound]
- half-life [4, 10]: < 3 min
- half-life [5, 11]: 6 min
- half life time (stability) in human serum [9]: less than three

Structure (SMILES): CC[C@H](C)[C@H](NC(=O)[C@H](CCCCN)NC(=O)[C@@H](NC(=O)[C@H](CCC(N)=O)NC(=O)[C@H](CCCNC(=N)N)NC(=O)[C@@H](N)CSC1CC(=O)N(CC2CCC(C(=O)NC[C@H]3CC[C@H](C(=O)Oc4ccc5nc6c(cc5c4)Cn4c-6cc5c(c4=O)COC(=O)[C@]5(O)CC)CC3)CC2)C1=O)[C@@H](C)CC)C(=O)N[C@@H](Cc1c[nH]c2ccccc12)C(=O)N[C@@H](Cc1ccccc1)C(=O)N[C@@H](CCC(N)=O)C(=O)N[C@@H](CC(N)=O)C(=O)N[C@@H](CCCNC(=N)N)C(=O)N[C@@H](CCCNC(=N)N)C(=O)N[C@@H](CCSC)C(=O)N[C@@H](CCCCN)C(=O)N[C@@H](Cc1c[nH]c2ccccc12)C(=O)N[C@@H](CCCCN)C(=O)N[C@@H](CCCCN)C(=O)O (stereo partly shown)
- half-life [4, 10]: 32 min
- half-life [5, 11]: 110 min
- IC50 ([1]; 48 h): 194 nM
- IC50 ([2]; 48 h): 161 nM
